Data on 72 sequences can be found in the supplement of paper PMC10567573.

The data set can be described thus: protein stability index of a GFP-peptide fusion (GPS, HEK-293T) (PSI 1-6); higher = more stable.
Where [1] appears, read: treatment: DMSO, c terminus: a fixed tail appended.
The mark [2] stands for this setting: treatment: MLN4924 1 uM, 8 h, c terminus: a fixed tail appended.
Setting [3] is: treatment: DMSO, c terminus: native.
Where [4] appears, read: treatment: MLN4924 1 uM, 8 h, c terminus: native.

± gives the standard deviation.
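Further: 24-mer peptide tiles fused after GFP, lentivirally expressed, FACS-sorted into six equal bins by GFP/DsRed ratio, decoded by Illumina sequencing, PSI is the read-weighted mean bin number.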

Turning to EEDGGADEHEHPLTSELDPEKEQE [MIA2], the protein stability index came to 5.4 ± 0.57 under setting [1] and 5.5 ± 0.37 under setting [2].
The matching figures for EEEKEWAFEESKIDEHHFVAVALR [AASDHPPT]: 3.73 ± 0.37 and 3.84 ± 0.42.
On the same counts, the results for EEYTTGMADCILVNSQFTAAVFKE [ALG2] are 3.21 ± 0.27 and 3.26 ± 0.24.
As to EFEAVVRQAELAIERCIFPERIYQ [PI4K2A], the protein stability index runs as follows: under setting [1], 2.43 ± 0.37; under setting [2], 2.33 ± 0.41.
The matching figures for EFNHTGELLATGDKGGRVVIFQRE [PPP2R2B]: 3.18 ± 0.24 and 3.19 ± 0.22.
Regarding EFVVRCFACPSQALFFKNIMNIID [KCNA4], the protein stability index is, setting by setting: under setting [1], 2.4 ± 0.78; under setting [2], 2.12 ± 0.55.
For EGGWWKAISLSTGRESYIPGICVA [SLA], the protein stability index reads like this: under setting [1], 2.03 ± 0.91; under setting [2], 2.05 ± 0.52.
On the same counts, the results for EGPSVVKRPAPRTAPRQEKHERTH [SPRY1] are 5.17 ± 0.29 and 5.13 ± 0.2.
EGRLRYPSRREPPPRRSRSRSHDR [CLK3] returned a protein stability index under setting [1] of 5.33 ± 0.31 and a protein stability index under setting [2] of 5.45 ± 0.1.
Take EGSLWAVGTESQGRDWRHLPTITS [PXN]: the protein stability index worked out at 3.23 ± 0.16 under setting [1] and 3.34 ± 0.16 under setting [2].
On the same counts, the results for EGVAGKSGLEKEVQRLTSRAARDY [FCHSD1] are 4.69 ± 0.039 and 4.84 ± 0.09.
The matching figures for EILRYMKEFTLLLSAANVCLDPII [P2RY14]: 2.44 ± 0.47 and 2.26 ± 0.31.
On the same counts, the results for EILTKESNVQEVRCPVTVCGDVHG [PPP2CA] are 3.69 ± 0.57 and 3.79 ± 0.12.
As for EILYPALPTDGSTGVELAPRSAEP [PCDHGA10], the protein stability index is, setting by setting: under setting [1], 4.57 ± 0.23; under setting [2], 4.85 ± 0.1.
With EKPLGRVGVFLDFESGSVSFLNVT [TRIM43], the protein stability index runs as follows: under setting [1], 2.28 ± 0.33; under setting [2], 2.17 ± 0.55.
On the same counts, the results for EKQIRSFLIEGPLINTIRVVCASY [PLEKHN1] are 3.13 ± 0.74 and 2.79 ± 0.48.
Consider ELDYLMDVLVGTQALERPPGPGR [SERTAD1], for which the protein stability index stood at 2.23 ± 0.26 under setting [3] and 2.67 ± 0.58 under setting [4].
Consider ELPAPAEVAAKNQSLEGDTTKGTS [MLH1], for which the protein stability index amounted to 5.61 ± 0.14 under setting [1] and 5.59 ± 0.16 under setting [2].
On to ELQNQLAACTRALESSEELLETAN [FSD1], for which the protein stability index is, setting by setting: under setting [1], 4.24 ± 0.37; under setting [2], 4.37 ± 0.39.
The matching figures for ELRNMCDEHIASEEPAEKEDLLQQ [CLCN6]: 5.38 ± 0.18 and 5.45 ± 0.12.
The matching figures for ELSRQVRSSVELELERCRQQAGLL [PPEF2]: 3.23 ± 0.25 and 3.2 ± 0.39.
For the sequence ELVLPFQELQIDDNEYAYLKAIIF [HNF4A], the protein stability index worked out at 2.16 ± 0.14 under setting [1] and 2.37 ± 0.35 under setting [2].
The matching figures for EMQLSEVQIKTWFQNRRMKHKRQM [VENTX]: 3.26 ± 0.16 and 3.19 ± 0.37.
The matching figures for ENEKDRADQTVLTEDEKKELENLA [CHGB]: 5.54 ± 0.19 and 5.75 ± 0.18.
On the same counts, the results for ENFDHNTLALILQIPTQNTQARQV [PPFIA4] are 2.58 ± 0.21 and 2.81 ± 0.45.
As to ENNYYWSASECMQDFNTMFTNCYI [BRD3], the protein stability index was 2.28 ± 0.67 under setting [1] and 2.49 ± 0.44 under setting [2].
On the same counts, the results for ENQSPSSSNYFSPRESTDFSSSSQ [ZBTB22] are 5.12 ± 0.31 and 4.96 ± 0.34.
On the same counts, the results for EPANLDILDTAGQAEFTAMRDQYM [RIT1] are 4.83 ± 0.24 and 4.67 ± 0.2.
Consider EPFSARVLVLCVFNSILPGVLILF [SOAT1], for which the protein stability index runs as follows: under setting [1], 3.05 ± 0.14; under setting [2], 3.06 ± 0.22.
EPPKCLDPCVISQEIMEKYNIKLK [CFHR2]: the protein stability index turned out to be 2.84 ± 0.27 under setting [1] and 2.87 ± 0.34 under setting [2].
Regarding EQELKTVTYSLLKRLKERSLDTLL [SMAD6], the protein stability index under setting [1] was found to be 2.35 ± 0.34 and the protein stability index under setting [2] worked out at 2.22 ± 0.31.
On to ERERLYPFSECGEAVSDSTPFLTN [ZNF263], for which the protein stability index under setting [1] amounted to 4.16 ± 0.16 and the protein stability index under setting [2] was 4.11 ± 0.27.
For ERLQAIAEKRKRQAEIENKRRQLE [PALM], the protein stability index under setting [1] stood at 3.74 ± 0.16 and the protein stability index under setting [2] amounted to 3.73 ± 0.27.
On the same counts, the results for ERLRLEQQKQQIMAALNSQTAVQF [ACBD3] are 3.36 ± 0.46 and 3.42 ± 0.28.
On the same counts, the results for ERNFWDPSPQLDTQQEIKLCQKSN [WDR41] are 3.92 ± 0.34 and 3.94 ± 0.37.
As to ERPGAEGAPLLPPPLPPPSPPGSG [ACBD3], the protein stability index runs as follows: under setting [1], 5.54 ± 0.24; under setting [2], 5.47 ± 0.19.
On the same counts, the results for ERVVREALEKLRSEMEEEKRQAVN [ZMYND11] are 4.59 ± 0.46 and 4.64 ± 0.063.
The matching figures for ESALIALDSEKPKKLRFHPKQLYF [EHMT1]: 2.38 ± 0.48 and 2.54 ± 0.19.
As to ESFGQNYPEEADGTLDCISMALTC [RBBP5], the protein stability index reads like this: under setting [1], 3.72 ± 0.26; under setting [2], 3.53 ± 0.18.
The matching figures for ESFTVHFLPLNSAQTLHHKSCYNG [DNAAF3]: 2.4 ± 0.62 and 2.49 ± 0.42.
The matching figures for ESKLLRDLSAANEKNLLLQNQVDE [LRRC45]: 5.37 ± 0.2 and 5.15 ± 0.34.
Turning to ESTFKNTEISFILGQEFDEVTADD [FABP4], the protein stability index reads like this: under setting [1], 4.74 ± 0.13; under setting [2], 5.03 ± 0.18.
As for ETQLKTLAQFPNTLLGNPKKRMRY [KCNA1], the protein stability index is, setting by setting: under setting [1], 3.25 ± 0.46; under setting [2], 3.61 ± 0.46.
On the same counts, the results for EVFRFVQSCARAVVPSYIPLVKKH [CPOX] are 2.12 ± 0.21 and 2.37 ± 0.33.
EVKKKGKMKKLGQAMEEDLIVGLQ [HDAC6]: the protein stability index is 4.55 ± 0.72 under setting [1] and 4.75 ± 0.14 under setting [2].
Consider EVLLDHLKAHAEEKPPSGTKEKKH [PLAGL1], for which the protein stability index came to 4.88 ± 0.2 under setting [1] and 5.08 ± 0.14 under setting [2].
Regarding EVQAVHKNTTYDLIANIVHDGKPS [USP39], the protein stability index under setting [1] was found to be 3.69 ± 0.17 and the protein stability index under setting [2] turned out to be 3.87 ± 0.32.
The matching figures for EYVPGGELFSYLRNRGRFSSTTGL [PRKX]: 2.53 ± 0.18 and 2.82 ± 0.27.
With FAAEARYPIYVIPEPPPVSFQPYH [TENT5D], the protein stability index reads like this: under setting [1], 2.24 ± 0.22; under setting [2], 2.26 ± 0.34.
Regarding FAEKGELRKSIFSESRKPTVSIME [TRIM29], the protein stability index under setting [1] came out at 2.37 ± 0.6 and the protein stability index under setting [2] turned out to be 3.09 ± 0.59.
The matching figures for FASLRPSEPFLTPYLLGPDKNLTE [SLC19A2]: 2.59 ± 0.48 and 3.17 ± 0.62.
The matching figures for FCEELESMIQEQFKKGKNPTGLLA [ADD1]: 3.9 ± 0.2 and 3.81 ± 0.18.
Take FCMFYAVLGIPLTLVMFQSLGERM [KCNK9]: the protein stability index runs as follows: under setting [1], 3.7 ± 0.32; under setting [2], 2.95 ± 0.31.
The matching figures for FCVALSDYDLVLAEDEEMNRMHES [GNAI1]: 3.52 ± 0.41 and 3.43 ± 0.28.
The matching figures for FDDCLYALCVVDTIKRSSQTGEWQ [GFOD1]: 2.09 ± 0.42 and 2.29 ± 0.25.
On the same counts, the results for FDRNADGYIDPEELAEIFRASGEH [TNNC2] are 5.32 ± 0.21 and 5.25 ± 0.2.
For the sequence FEPRLLVQSIELQRPRFITSGGSN [VPS39], the protein stability index worked out at 2.88 ± 0.3 under setting [1] and 2.9 ± 0.21 under setting [2].
In turn, FFIYGQVLYTDKTYAMGHLIQRKK [TNFSF13B] registered a protein stability index under setting [1] of 2.4 ± 1 and a protein stability index under setting [2] of 2.12 ± 0.53.
Turning to FFRSLLPNYTMEGERPEEGVAGGL [TCF25], the protein stability index reads like this: under setting [1], 3.09 ± 0.32; under setting [2], 3.52 ± 0.15.
FFSVIFMTVGILSNSLAIAILMKA [PTGFR]: the protein stability index came out at 3.12 ± 0.26 under setting [1] and 2.75 ± 0.5 under setting [2].
FFYTAATNNPRFDKMEGNPICVQI [CRY1] had a protein stability index under setting [1] of 2.92 ± 0.33 and a protein stability index under setting [2] of 2.83 ± 0.67.
On to FGGAAAVAILAVAIGVALALRKK [BCL2L13], for which the protein stability index by setting is: under setting [3], 2.99 ± 0.2; under setting [4], 2.81 ± 0.21.
FGGVLEYFMIQALNQKTSEKMKKR [RHOBTB3] came in with a protein stability index under setting [1] of 2.14 ± 0.66 and a protein stability index under setting [2] of 2.24 ± 0.25.
On the same counts, the results for FGIDVKEVDPTGHSFVLVTSLGLT [MAGEA10] are 2.43 ± 0.55 and 2.28 ± 0.59.
On the same counts, the results for FGKKEKGRLIQLSRDGATGHVLLT [PPFIA4] are 2.71 ± 0.36 and 2.78 ± 0.2.
The matching figures for FHCSMSPGNLEKNRYGDVPCLDQT [PTPN9]: 2.79 ± 0.51 and 2.82 ± 0.47.
In turn, FHLDVEDYLSGVLILASELSRLSV [TSN] yielded a protein stability index under setting [1] of 3.06 ± 0.74 and a protein stability index under setting [2] of 3.04 ± 0.48.
The matching figures for FIQKRCNSLLEEETILHFFVQILL [NEK8]: 2.41 ± 0.36 and 2.28 ± 0.47.
Consider FLFVLARVPAGIFKHTLSISRALL [MFSD9], for which the protein stability index is 3.29 ± 0.23 under setting [1] and 2.81 ± 0.11 under setting [2].
On to FLHLRTHTEERPYECNHCGKGFRH [ZNF8], for which the protein stability index under setting [1] is 2.79 ± 0.34 and the protein stability index under setting [2] amounted to 2.97 ± 0.36.
Turning to FLVAEWNEPSINFYKRRGASDLSS [SAT1], the protein stability index was determined as 2.32 ± 0.28 under setting [1] and 2.43 ± 0.45 under setting [2].
On the same counts, the results for FMYFLRGSLPWQGLKADTLKERYQ [CSNK1G1] are 2.43 ± 0.35 and 2.26 ± 0.17.
